Starred links: 1 amine or outer side, 2 acyl side, 3 side chain; linkers in the order of their positions; H or OH if unused. Positions of bridges follow the written chain, without caps; N, C: chain ends. Non-standard residues stand in square brackets, D forms with d. Primed or numbered codes have the meaning given here. PyrS2″ = (S)-3-amino-1-((pent-4-en-1-yloxy)carbonyl)pyrrolidine-3-carboxylic acid (stapling residue), C=CCCCOC(=O)N1CC[C@@](N[*:1])(C(=O)[*:2])C1; RdN(3) = (R)-4-(((allyloxy)carbonyl)(methyl)amino)-2-amino-2-methylbutanoic acid, stapling residue, C=CCOC(=O)N(C)CC[C@@](C)(N[*:1])C(=O)[*:2]; RdN″ = (R)-4-(((allyloxy)carbonyl)(methyl)amino)-2-amino-2-methylbutanoic acid (stapling residue), C=CCOC(=O)N(C)CC[C@@](C)(N[*:1])C(=O)[*:2]; B5(16) = 2-amino-2-(pent-4-en-1-yl)hept-6-enoic acid = 2,2-bis(4-pentenyl)glycine (stitching residue), C=CCCCC(CCCC=C)(N[*:1])C(=O)[*:2]; B5(5) = 2,2-bis(4-pentenyl)glycine, 2-amino-2-(pent-4-en-1-yl)hept-6-enoic acid (stitching residue), C=CCCCC(CCCC=C)(N[*:1])C(=O)[*:2]; TfeGA = (S)-2-amino-3-((carboxymethyl)(2,2,2-trifluoroethyl)amino)propanoic acid, O=C([C@H](CN(CC(=O)[*:3])CC(F)(F)F)N[*:1])[*:2]; PyrS2 = (S)-3-amino-1-((pent-4-en-1-yloxy)carbonyl)pyrrolidine-3-carboxylic acid, C=CCCCOC(=O)N1CC[C@@](N[*:1])(C(=O)[*:2])C1; B5(3) = 2,2-bis(4-pentenyl)glycine (stitching residue), C=CCCCC(CCCC=C)(N[*:1])C(=O)[*:2]; Phe(4-COOH) = N[C@@H](Cc1ccc(C(=O)O)cc1)C(=O)O; Trp(7-F) = N[C@@H](Cc1c[nH]c2c(F)cccc12)C(=O)O; S7 = C[C@@](CCCCCC=[*:3])(N[*:1])C(=O)[*:2]; Bta = N[C@@H](Cc1csc2ccccc12)C(=O)O; αAllylPro = C=CC[C@@]1(C(=O)O)CCCN1; tBuAla = CC(C)(C)C[C@H](N)C(=O)O; 3Thi = N[C@@H](Cc1ccsc1)C(=O)O; Cit = NC(=O)NCCC[C@H](N)C(=O)O; S8 = C=CCCCCCC[C@](C)(N)C(=O)O; PyrS2(4) = not defined here; TfeGA″ = not defined here
T1: B-cat-Halo (UniProt P35222 1-781)
T1 sequence (looked up): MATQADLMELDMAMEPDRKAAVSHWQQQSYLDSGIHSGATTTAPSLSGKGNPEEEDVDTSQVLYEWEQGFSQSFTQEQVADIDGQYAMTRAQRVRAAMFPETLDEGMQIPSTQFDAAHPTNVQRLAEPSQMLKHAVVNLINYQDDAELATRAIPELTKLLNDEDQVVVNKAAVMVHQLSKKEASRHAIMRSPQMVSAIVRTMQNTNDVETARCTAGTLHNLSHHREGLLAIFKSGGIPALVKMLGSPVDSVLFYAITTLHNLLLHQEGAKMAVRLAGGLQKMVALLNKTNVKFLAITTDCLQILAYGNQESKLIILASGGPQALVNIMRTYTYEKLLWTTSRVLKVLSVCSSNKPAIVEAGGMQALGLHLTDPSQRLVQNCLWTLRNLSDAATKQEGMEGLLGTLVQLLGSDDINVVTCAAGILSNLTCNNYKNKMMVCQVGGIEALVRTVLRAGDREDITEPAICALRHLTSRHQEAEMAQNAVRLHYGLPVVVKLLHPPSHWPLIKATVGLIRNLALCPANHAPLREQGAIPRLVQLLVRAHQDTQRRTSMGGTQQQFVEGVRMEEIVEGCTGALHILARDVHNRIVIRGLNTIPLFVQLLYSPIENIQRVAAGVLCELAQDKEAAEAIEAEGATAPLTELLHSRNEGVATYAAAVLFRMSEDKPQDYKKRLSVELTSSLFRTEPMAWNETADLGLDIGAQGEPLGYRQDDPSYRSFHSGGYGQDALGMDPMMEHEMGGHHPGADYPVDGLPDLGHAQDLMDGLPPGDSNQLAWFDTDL

T2: full-length beta-Catenin (Uniprot ID P35222) (Homo sapiens (Human), UniProt P35222 2-781)
T2 construct: the AlphaScreen assay uses a Histidine (Nickel Chelate) detection kit, so a His tag is likely there; also called B-Catenin; bCat
T2 sequence: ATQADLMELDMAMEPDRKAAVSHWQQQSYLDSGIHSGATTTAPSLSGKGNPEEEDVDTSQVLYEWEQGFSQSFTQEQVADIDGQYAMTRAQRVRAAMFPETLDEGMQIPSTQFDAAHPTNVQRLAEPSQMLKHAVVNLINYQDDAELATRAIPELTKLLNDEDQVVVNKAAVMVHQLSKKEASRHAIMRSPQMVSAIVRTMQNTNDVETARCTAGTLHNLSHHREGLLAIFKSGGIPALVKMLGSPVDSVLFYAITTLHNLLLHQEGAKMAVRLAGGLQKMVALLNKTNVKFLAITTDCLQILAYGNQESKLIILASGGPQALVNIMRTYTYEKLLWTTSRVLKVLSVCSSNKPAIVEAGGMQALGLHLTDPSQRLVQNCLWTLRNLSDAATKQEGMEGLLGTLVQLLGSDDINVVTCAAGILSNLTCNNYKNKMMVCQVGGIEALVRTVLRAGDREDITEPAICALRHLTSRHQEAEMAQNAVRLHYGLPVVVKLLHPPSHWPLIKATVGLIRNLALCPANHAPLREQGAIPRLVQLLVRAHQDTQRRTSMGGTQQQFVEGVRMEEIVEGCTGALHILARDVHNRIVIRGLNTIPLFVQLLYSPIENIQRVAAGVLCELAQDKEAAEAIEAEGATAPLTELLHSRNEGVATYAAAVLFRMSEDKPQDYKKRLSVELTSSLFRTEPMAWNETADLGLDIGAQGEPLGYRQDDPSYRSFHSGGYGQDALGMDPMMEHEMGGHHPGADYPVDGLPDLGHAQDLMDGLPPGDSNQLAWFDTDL

B1: I-155 (peptide)
peptide: ADIXDEAAFAXFWA
modifications: not fully specified; as printed: Ac-Ala-Asp-Ile-RdN-Asp-Glu-Ala-Ala-Phe-Ala-S7-Phe-Trp-Ala-NH2; N-terminal acetyl, C-terminal amide; RdN(4), S7(11); staple RdN-S7 by olefin metathesis
notes: stapled peptide

target: T1, B-cat-Halo; assay: cell-based or functional assay

Row | Binder | NanoBRET Abs IC50
1 | Ac-[αAllylPro]D[tBuAla][B5(3)]D[TfeGA″]AAFF[PyrS2(4)][3Thi][Bta]Q-NH2 (staple 1-4, 4-11; reading uncertain) [I-848] | 7000 nM
2 | Ac-[αAllylPro]D[tBuAla][B5(3)]D[TfeGA]AAFL[PyrS2][3Thi][Bta]Q-NH2 (staple 1-4, 4-11) [I-849] | 3600 nM
3 | Ac-[αAllylPro]D[tBuAla][B5(3)]D[Cit]AAFN[PyrS2″][3Thi][Bta]Q-NH2 (staple 1-4, 4-11) [I-840] | 22300 nM
4 | Ac-[αAllylPro]D[tBuAla][B5(3)]DYAAFN[PyrS2″][3Thi][Bta]Q-NH2 (staple 1-4, 4-11) [I-842] | 47900 nM
5 | Ac-[αAllylPro]D[tBuAla][B5(3)]DQAAFN[PyrS2″][3Thi][Bta]H-NH2 (staple 1-4, 4-11) [I-839] | 41900 nM
6 | Ac-[αAllylPro]D[tBuAla][B5(3)]D[Phe(4-COOH)]AAFF[PyrS2][3Thi][Bta]Q-NH2 (staple 1-4, 4-11) [I-850] | 16400 nM
7 | Ac-[αAllylPro]D[tBuAla][B5(3)]DLAAFN[PyrS2(4)][3Thi][Bta]H-NH2 (staple 1-4, 4-11; reading uncertain) [I-847] | > 20000 nM
8 | Ac-[αAllylPro]D[tBuAla][B5(3)]DQAAFN[PyrS2″][3Thi][Bta]Q-NH2 (staple 1-4, 4-11) [I-838] | 17400 nM

target: T2, full-length beta-Catenin (Uniprot ID …); assay: AlphaScreen competition; full-length beta-catenin with biotin-TCF4(10-53) probe as competitor
Procedure: Equal volume of the titrated peptide was added to the plate and incubated for 15 minutes at 20° C. Then 4 uL of donor and 4 uL acceptor beads at 10 ug/mL were added to the plate, for a 16 uL reaction pool and protected from light for 60 minutes at 20° C. prior to read. Reads were performed on a CLARIOstar plate reader (BMG Labtech) in duplicate, and data were fitted to a 1:1 binding model with hill slope using an in-house script. All provided concentrations are final concentrations.

Row | Binder | EC50
9 | Ac-[αAllylPro]DI[B5(5)]DDAAFQ[S8]FWH-NH2 (staple 1-4, 4-11, stapled peptide) [I-174] | 116 nM
10 | Ac-[αAllylPro]DA[B5(16)]DEAAFV[S8]F[Trp(7-F)]Q-NH2 (staple 1-4, 4-11, stapled peptide composition) [I-166] | 86.5 nM
11 | Ac-[αAllylPro]DI[B5(5)]DDAAFQ[S8]FWH-NH2 (staple 1-4, 4-11, stapled peptide) [I-175] | 116 nM
12 | B1 | 734 nM
13 | Ac-ADI[RdN″]DEAAFA[S7]FWH-NH2 (staple 4-11, stapled peptide composition) [I-152] | 752 nM
14 | Ac-ADI[RdN(3)]DEAAFQ[S7]FWA-NH2 (staple 4-11, stapled peptide composition) [I-153] | 153 nM

target: T2, full-length beta-Catenin (Uniprot ID …); assay: fluorescence polarization competition; full-length beta-catenin with 5FAM-TCF4(10-53) probe as competitor
Procedure: The plate was incubated protected from light for 60 minutes at 20° C. prior to read. Reads were performed on a CLARIOstar plate reader (BMG Labtech) in duplicate, and data were fitted to a 1:1 binding model with hill slope using an in-house script. All provided concentrations are final concentrations.

Row | Binder | EC50
15 | Ac-[αAllylPro]DI[B5(5)]DDAAFQ[S8]FWH-NH2 (staple 1-4, 4-11, stapled peptide) [I-174] | 1760 nM
16 | Ac-[αAllylPro]DA[B5(16)]DEAAFV[S8]F[Trp(7-F)]Q-NH2 (staple 1-4, 4-11, stapled peptide composition) [I-166] | 2160 nM
17 | Ac-[αAllylPro]DI[B5(5)]DDAAFQ[S8]FWH-NH2 (staple 1-4, 4-11, stapled peptide) [I-175] | 1760 nM
18 | B1 | 5000 nM
19 | Ac-ADI[RdN″]DEAAFA[S7]FWH-NH2 (staple 4-11, stapled peptide composition) [I-152] | 5000 nM
20 | Ac-ADI[RdN(3)]DEAAFQ[S7]FWA-NH2 (staple 4-11, stapled peptide composition) [I-153] | 2140 nM

From patent US20240116985A1 (published 2024)
